Experimental findings from the supplement of paper PMC7877785 are described below.

± gives the uncertainty stated by the source.

This data set can be described thus: self-splicing fitness, log relative to wild type (ln ratio); higher = more splicing; Tetrahymena group I intron in knt gene, E. coli kanamycin selection, DiMSum; sequences stand for … in CUCUCU…GGAGGGAAAAGUUAUCAGGCAUGCACCUGGUAGCUAGUCUUUAAACCAAUAGAUUGCAUCGGUUUAAAAGGCAAGACCGUCAAAUUGCGGGAAAGGGGUCAACAGCCGUUCAGUACCAAGUCUCAGGGGAAACUUUGAGAUGGCCUUGCAAAGGGUAUGGUAAUAAGCUGACGGACAUGGUCCUAACCACGCAGCCAAGUCCUAAGUCAACAGAUCUUCUGUUGAUAUGGAUGCAGUUCACAGACUAAAUGUCGGUCGGGGAAGAUGUAUUCUUCUCAUAAGAUAUAGUCGGACCUCUCCUUAAUGGGAGCUAGCGGAUGAAGUGAUGCAACACUGGAGCCGCUGGGAACUAAUUUGUAUGCGAAAGUAUAUUGAUUAGUUUUGGAGUACUCGUGGUCG
In outline:
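A randomised library covering all eight P1ex-region intron nucleotides was built with the intron in the knt kanamycin-resistance gene on pET-22b(+) and held in E. coli BL21(DE3). Cells were grown overnight at 37°C or 30°C on LB agar, with or without 25 μg/mL kanamycin, plus 100 μg/mL carbenicillin, 50 μM IPTG and 0.2% rhamnose, and pooled colonies were amplicon-sequenced on an Illumina HiSeq 2500. DiMSum fitness is the error-weighted combination of wild-type-normalised replicate fold changes, kanamycin versus none.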

For UCUCAGCAAUAUUACGUAGC, the “self-splicing fitness (ln)” value is, setting by setting: (30 °C) -1.31 ± 0.17; (37 °C) -1.16 ± 0.23.
For GCCCAGCAAUAUUACGCCGG the same measures were -3.34 ± 0.27 and -2.9 ± 0.47.
Consider GUGUAGCAAUAUUACGCAAC, for which, under “37 °C”, the “self-splicing fitness (ln)” value is -0.636 ± 0.23.
With AGUCAGCAAUAUUACGCAUG, the “self-splicing fitness (ln)” value by setting is: (30 °C) -2.04 ± 0.14; (37 °C) -1.12 ± 0.13.
For AUACAGCAAUAUUACGGCAU the same measures were -0.388 ± 0.083 and 0.525 ± 0.099.
Consider CGAAAGCAAUAUUACGAGAC, for which, under “37 °C”, the “self-splicing fitness (ln)” value was -2.62 ± 0.24.
For the sequence UAUCAGCAAUAUUACGUGAC, the “self-splicing fitness (ln)” value by setting is: (30 °C) -0.555 ± 0.1; (37 °C) -1.45 ± 0.15.
As for CCGGAGCAAUAUUACGAAGA, the “self-splicing fitness (ln)” value runs as follows: (30 °C) -3.63 ± 0.23; (37 °C) -1.97 ± 0.16.
For CGAAAGCAAUAUUACGGAAU the same measures were -3.69 ± 0.29 and -2.15 ± 0.49.
For ACACAGCAAUAUUACGCGUG the same measures were -2.25 ± 0.074 and -1.68 ± 0.081.
For UGUCAGCAAUAUUACGCGUC the same measures were -2.7 ± 0.3 and -1.51 ± 0.29.
As for GUUAAGCAAUAUUACGAGGC, the “self-splicing fitness (ln)” value is -3.2 ± 0.28 (30 °C) and -1.34 ± 0.3 (37 °C).
With GUAGAGCAAUAUUACGUGUA, the “self-splicing fitness (ln)” value runs as follows: (30 °C) -2.77 ± 0.2; (37 °C) -2.53 ± 0.28.
For CGAUAGCAAUAUUACGUCGG, the “self-splicing fitness (ln)” value reads like this: (30 °C) -1.16 ± 0.11; (37 °C) -0.171 ± 0.11.
Turning to CGACAGCAAUAUUACGUUCU, the “self-splicing fitness (ln)” value (30 °C) was -0.971 ± 0.05 and the “self-splicing fitness (ln)” value (37 °C) was -0.0323 ± 0.07.
With AUCUAGCAAUAUUACGGCCA, the “self-splicing fitness (ln)” value is -1.06 ± 0.12 (30 °C) and -0.879 ± 0.13 (37 °C).
Consider UGUGAGCAAUAUUACGGAAC, for which, under “37 °C”, the “self-splicing fitness (ln)” value is -1.72 ± 0.48.
With GGGCAGCAAUAUUACGUUGC, the “self-splicing fitness (ln)” value was -3.77 ± 0.16 (30 °C) and -1.95 ± 0.19 (37 °C).
Regarding ACGCAGCAAUAUUACGCCCG, the “self-splicing fitness (ln)” value (30 °C) was -0.491 ± 0.13 and the “self-splicing fitness (ln)” value (37 °C) was -0.64 ± 0.19.
For UAGCAGCAAUAUUACGUCUA the same measures were -0.114 ± 0.073 and 0.146 ± 0.084.
For GAUCAGCAAUAUUACGACUU the same measures were 0.107 ± 0.092 and -0.119 ± 0.11.
Consider UUGCAGCAAUAUUACGCAAG, for which the “self-splicing fitness (ln)” value is -1.92 ± 0.16 (30 °C) and -2.89 ± 0.36 (37 °C).
For UGAAAGCAAUAUUACGAGUU the same measures were -3.31 ± 0.15 and -0.915 ± 0.095.
For GAGUAGCAAUAUUACGAUUU the same measures were -0.387 ± 0.086 and -0.312 ± 0.1.
Turning to GGGCAGCAAUAUUACGAACC, the “self-splicing fitness (ln)” value reads like this: (30 °C) -0.749 ± 0.29; (37 °C) -0.806 ± 0.31.
For UUGCAGCAAUAUUACGCUCU the same measures were -1.01 ± 0.12 and -0.306 ± 0.13.
Consider UUACAGCAAUAUUACGUUAG, for which the “self-splicing fitness (ln)” value (30 °C) was -0.713 ± 0.086 and the “self-splicing fitness (ln)” value (37 °C) came to 0.208 ± 0.12.
Consider GGUGAGCAAUAUUACGUUAC, for which the “self-splicing fitness (ln)” value (30 °C) is -3.12 ± 0.47 and the “self-splicing fitness (ln)” value (37 °C) was -0.718 ± 0.24.
For CAGUAGCAAUAUUACGCGGC the same measures were -2.92 ± 0.32 and -2.14 ± 0.5.
For GUGUAGCAAUAUUACGGAGG, the “self-splicing fitness (ln)” value reads like this: (30 °C) -3.89 ± 0.29; (37 °C) -2.67 ± 0.22.
For UUAGAGCAAUAUUACGGACA the same measures were -2.08 ± 0.13 and -0.655 ± 0.16.
For AAGAAGCAAUAUUACGCGAC, the “self-splicing fitness (ln)” value is -3.25 ± 0.24 (30 °C) and -1.53 ± 0.13 (37 °C).
For CCGGAGCAAUAUUACGUGGG the same measures were -3.39 ± 0.31 and -2.78 ± 0.38.
For CACCAGCAAUAUUACGGCGA the same measures were -1.62 ± 0.061 and -1.23 ± 0.063.
For CCUCAGCAAUAUUACGUCUU the same measures were -3.91 ± 0.27 and -2.55 ± 0.26.
For AUUAAGCAAUAUUACGGUAU, the “self-splicing fitness (ln)” value reads like this: (30 °C) -1.01 ± 0.11; (37 °C) -1.2 ± 0.14.
For GCCAAGCAAUAUUACGAUAU the same measures were -2.75 ± 0.12 and -2.01 ± 0.13.
With GCUCAGCAAUAUUACGCCAC, the “self-splicing fitness (ln)” value (37 °C) is -1.97 ± 0.47.
